B1: library; numbered along this chain (parent)
chain: MAAAGGARLLRAASAVLGGPAGRWLHHAGSRAGSSGLLRNRGPGGSAEASRSLSVSARARSSSEDKITVHFINRDGETLTTKGKVGDSLLDVVVENNLDIDGFGACEGTLACSTCHLIFEDHIYEKLDAITDEENDMLDLAYGLTDRSRLGCQICLTKSMDNMTVRVPETVADARQSIDVGKTS

Variants of: B1
Assay: scaled log2 fold change in cell abundance, elesclomol vs control (0 = silent mean, 1 = nonsense mean) (scaled log2 ratio); higher = higher viability under elesclomol (loss of FDX1 cuproptosis function)
Details: glucose 10 mM
Description: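 Deep mutational scan of full-length human FDX1: a pooled saturation-mutagenesis ORF library (every residue 2-184 mutated to all 19 amino acids plus stop, and silent codons where available) was expressed by lentivirus in FDX1-knockout ABC1 (14 days) or HEK293T (11 days) cells grown with elesclomol (ES) or DMSO control. Variant abundance came from ORF sequencing. The log2 fold change (ES vs control, mean of duplicates) was centred on the silent-variant mean (0) and scaled to the nonsense-variant mean (1). Higher values mean greater viability under ES, i.e. loss of FDX1 function in cuproptosis.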

[1] = with ABC1 FDX1 KO, elesclomol 5 nM, 14 days
[2] = with HEK293T FDX1 KO, elesclomol 40 nM, 11 days
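Also: variant abundance is its share of total variant reads in each endpoint sample, from next-generation sequencing of the integrated ORF PCR-amplified out of genomic DNA.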

Variant | scaled log2 fold change [1] | scaled log2 fold change [2]
M137C | -0.596 | -0.635
M137L | 0.182 | 1.39
M137D | 0.813 | 0.152
L10V | 0.189 | -0.208
L10D | 0.404 | 0.0467
H70K | -0.215 | 0.573
C112V | 1.21 | 1.04
A105Y | -0.576 | 0.955
R31H | -0.603 | 
D91S | -0.972 | 0.774
T109D | -0.669 | 0.407
V85I | -0.161 | -0.597
D136S | 0.133 | 0.338
D136H | 0.556 | 0.766
G108D | 0.898 | 0.446
S52E | 0.648 | 0.0946
S52M | 0.212 | -0.953
P43S | -0.443 | -0.3
V55R | 0.114 | 0.865
N162W | 0.1 | 0.831
N162Y | 0.0965 | 0.0713
V165D | 1.12 | 0.895
V94F | -0.376 | -0.411
N73A | 0.491 | -0.233
D139C | -0.416 | -0.576
S148R | 0.331 | 0.333
D128C | 0.113 | 0.174
K84V | 0.289 | -0.902
G29D | 0.238 | 
